Patent US20220195015A1 (published 2022)

Experiments:
[1] = biological target: SARS-CoV-2 spike receptor binding domain (RBD), wild type (SARS-CoV-2, UniProt P0DTC2 319-539); assay: ELISA, RBD protein coated, mAb titrated
[2] = biological target: SARS-CoV-2 spike receptor binding domain (RBD), wild type (SARS-CoV-2, UniProt P0DTC2 319-539); assay: ELISA on coated RBD protein

| Binder | EC50 [1] | EC50 [2] |
| --- | --- | --- |
| C558 (antibody, V domains shown) VH: EVQLVQSGAEVKKPGESLKISCKVSGYTFTNYWIGWVRQMPGKGLEWMGIIYPGDSDTRYSPSFQGQVTISADKSIITAYLQWSSLKASDTAMYYCARVPSSSDYGDYGGFEYWGQGTLVTVSS VL: not shown | 2.41 ng/mL |  |
| C559 (antibody, V domains shown) VH: EVQLVQSGAEVKKPGESLKISCKVSGYTFTNYWIGWVRQMPGKGLEWMGIIFPGDSDTRYSPSFQGQVTISADRSITTAYLQWRSLKASDTAMYYCARVPSSSDYGDYGGFEYWGQGTLVTVSS VL: DIQMTQSPSSLSASVGDRVTITCRASQTITIYLNWYQQKPGKAPKLLIYAASSLQSGVPSRFSGSGSGTDFTLTISSLQPEDFATYYCQQSYSTPCSFGQGTKLEIK | 2.89 ng/mL |  |
| C564 (antibody, V domains shown) VH: EVQLLESGGGLVQPGTSLRLSCAASGFTFSSYAMSWVRQAPGKGLEWVSAISSSGGSTYYADSVKGRFTISRDNSKNTLYLHMNSLRAEDTAVYYCATERIAVAGTRMYNWFDPWGQGTLVTVSS VL: DIQMTQSPSSLSASVGDRVTLTCRASQSISSYLNWYQQKPGKAPNLLIYAASSLQSGVPSRFSGSGSGTDFTLTISSLQPEDFATYYCQQSYSAPPWTFGQGTKVEIK | 14.6 ng/mL |  |
| C546 (antibody, V domains shown) VH: EVQLLESGGGLVHPGGSLRLSCAASGFTFSTYAMHWVRQAPGKGLEWVSAISGSGTGTFYADSVKGRFSISRDNSKNTLYLQMNSLRAEDTAVYYCATERIAVSDTRMYNWFDPWGQGTLVTVSS VL: DIQMTQSPSSLSASVGDRVTLTCRASQGISTYLNWYQQKPGKAPNLLIYAASSLQSGVPSRFSGSGSGTDFTLTISSLQPEDFATYYCQQSYSAPPWTFGQGTKVEIK | 3.57 ng/mL |  |
| C549 (antibody, V domains shown) VH: QVQLVQSGAEVKKPGSSVKVSCKASGGTFSTSAISWVRQAPGQGLEWMGGIIPFFGTPNYAQKFQGRVTIIADESTTTAYMELSGLRFEDSAVYYCARREPYGPRDYYYFFGMDVWGPGTTVTVSS VL: QSALTQPPFASASLGASVTLTCTLSSDYSYYKVDWYQQRPGKGPRFVIRVGPGGIVGSKGDGFPDRFSVLGSGLNRSLTINNIQEEDEGDYHCGADEGSGGTFVGVFGGGTKLTV | 1.76 ng/mL |  |
| C544 (antibody, V domains shown) VH: QVQLVQSGAEVKKPGASVKVSCKASGYTFSSHDINWVRQATGQGLEWVGWMNPNSGNTGSAQSFQGRVTLTRNASISTAYLELSSLRSEDTAVYFCARGFSLTWYFDLWGRGTLVTVSS VL: SYELTQPPSVSAAPGKTARITCGGNNIGGKNVHWYQQKPGQAPVLVVFDDSDRPSGIPERFSGSNSGNTATLTISRVEAGDEADYYCQLWDSTSDHPDVVFGGGTQLTVL | 2.34 ng/mL |  |
| C164 (antibody, V domains shown) VH: EVQLVESGGGLVQPGGSLRLSCAASGFSVSTKYMTWVRQAPGKGLEWVSVLYSGGSDYYADSVKGRFTISRDNSKNALYLQMNSLRVEDTGVYYCARDSSEVRDHPGHPGRSVGAFDIWGQGTMVTVSS VL: QSALTQPASVSGSPGQSITISCTGTSNDVGSYTLVSWYQQYPGKAPKLLIFEVTKRSSGISNRFSGSKSGNTASLTISGLQGEDEADYYCCSYAGASTFVFGGGTKLTVL |  | 1.41 ng/mL |
| C055 (antibody, V domains shown) VH: EVQLVESGGGLVQPGGSLRLSCAASGFSVSTKYMTWVRQAPGKGLEWVSVLYSGRTDYYADSVKGRFTISRDSSKNILYLQMSSLRVEDTGFYYCARDSSEVRDHPGHPGRSVGAFDIWSQGTMVTVSS VL: QSALTQPASVSGSPGQSIAISCTGTSNDVGSYTLVSWYQQYPGKAPKLLIFEDSQRSSGISNRFSGSKSGNTASLTISGLRGEDEADYYCCSYAGSHTFVFGGGTKVTVL |  | 1.25 ng/mL |
| C143 (antibody, V domains shown) VH: EVQLVESGGGLVQPGGSLRLSCAASGFSVSTKYMTWVRQAPGKGLEWVSVLYSGGSDYYADSVKGRFTISRDNSKNALYLQMNSLRVEDTGVYYCARDSSEVRDHPGHPGRSVGAFDIWGQGTMVTVSS VL: QSALTQPASVSGSPGQSITISCTGTSNDVGSYTLVSWYQQYPGKAPKLLIFEGTKRSSGISNRFSGSKSGNTASLTISGLQGEDEADYYCCSYAGASTFVFGGGTKLTVL |  | 2.01 ng/mL |
| C058 (antibody, V domains shown) VH: QVQLVQSGAEVKKPGASVKVSCKASGYIFTDYSMHWVRQAPGQGLEWIGWVNPNSGGTNYAQKFQGWVTMARDTSITTVYMELSRLKSDDTAVYFCARGPLFHRLVYDFWSGYHDGFDMWGQGTMVTVSS VL: QSALTQPASVSGSPGQSITISCTGTSSDVGGYKFVSWYQQHPGKAPKLMIYEVSNRPSGVSNRFSGSKSGNTASLTISGLQAEDEADYYCNSYTSSSTWVFGGGTKLTVL |  | 2.28 ng/mL |
| C051 (antibody, V domains shown) VH: EVQLVESGGGLIQAGGSLRLSCAASGFGVRNNYMSWVRQAPGKGLEWVSVIYSGGTTYYADSVKGRFTISRDNSKNTVFLQMNSLRAEDTAVYYCAREGDVEGFSDLWSGYSRDRYYFDYWGQGTLVTVSS VL: QSALTQPASVSGSPGQSITFSCTGTSSDVGGYNYVSWYQQYPGKAPKLLIYDVTNRPSGVSDRFSGSKSGNTASLTISGLQAEDEADYYCSSFTSSNTRVFGTGTKVTVL |  | 1.65 ng/mL |
| C050 (antibody, V domains shown) VH: EVQLVESGGGLFQPGGSLRLSCAASGFSVRNNYVSWVRQAPGKGLEWVSVIYSGGTTYYADSVKGRFTISRDISENTLYLQMNSLRAEDTAVYYCAREGDVEGLHDFWSGYSRDRYYFDYWGQGTLVTVSS VL: QSALTQPASVSGSPGQSIIISCTGTSGDIGGYNYVSWYQQHPGKAPKLMIYDVSFRPSGVSNRFSGSKSDNTASLTISGLQAEDEADYYCSSFTGNNTRVFGTGTKVTVL |  | 1.93 ng/mL |
| C053 (antibody, V domains shown) VH: EVQLVESGGGLIQPGGSLRLSCAASGFIVSNNYMSWVRQAPGKGLDWVSVIYSGGTTYYADSVKGRFTISRDNSKNTLYLQMNSLRAEDTAVYYCAREGDVEGYHDSWSGYSRDRYYFDYWGQGTLVTVSS VL: QSALTQPASVSGSPGQSITISCTGSSSDVGGYNFVSWYQQHPGRAPKLMIYDVSNRPSGVSNRFSGSKSGNTASLTISGLQVEDEADYYCSSYTNNNTRVFGTGTKVTVL |  | 1.53 ng/mL |
| C560 (antibody, V domains shown) VH: EVQLVESGGGLVQPGRSLRLSCAASGFTFDDYAMHWVRQAPGKGLEWVSGVSWNSGTIGYADSVKGRFTISRDNAKNSLYLQMNSLRAEDTALYYCAKIADIVRAYDFWSGQHFDAFDIWGQGTMVTVSS VL: not shown | 1.6 ng/mL |  |
| C561 (antibody, V domains shown) VH: EVQLVESGGGLVQPGRSLRLSCAASGFTFDDYAIHWVRQAPGKGLEWVSGVSWNSGTIGYADSVKGRFFISRDNAKNSLYLQMNSLRAEDTAWYYCAKIADLVGAYDFRSGQHFAAFDVWGQGTMVTVSS VL: not shown | 1.53 ng/mL |  |
| C542 (antibody, V domains shown) VH: EVQLVESGGGLVQPGGSLRLSCAASGLTVTSNYMSWVRQAPGRGLEWVSLIYPGGTTYYADSVKGRFTVSRDNSKNTLYLQMDSLRAEDTGVYYCARETLGRGGDCWGQGTLVTVSS VL: DIQMTQSPSSLSASVGDRVTITCQASQDISNFLNWYQQKPGKAPKLLIYDASNLETGVPSRFSGSRSGTDFTFTISSLQPDDIATYYCQQYDNLPRSFGQGTKLEIK | 1.07 ng/mL |  |
| C213 (antibody, V domains shown) VH: EVQLVESGGGLVKPGGSLRLSCAASGFTFSSYSMNWVRQAPGKGLEWVSSISSSSSYIYYADSVKGRFTISRDNAKNSLYLQMNSLRAEDTAVYYCARVQVGARGWVDYWGQGTLVTVSS VL: NFMLTQPHSVSESPGKTVTISCTRSSGSIASNYVQWYQQRPGSAPTTVIYEDNERPSGVPDRFSGSIDSSSNSASLTISGLKTEDEADYYCQSYDRINWVFGGGTKLTVL | 2.02 ng/mL |  |
| C545 (antibody, V domains shown) VH: EVQLLESGGGLVKPGGSLRLSCAASGFTFSDYSMTWVRQAPGKGLEWVSFISSSSTYIYYADSVKGRFTISRDNAKSSLYLQMNRLRAEDTAVYYCTRVQVGARGWADYWGQGTLVTVSS VL: NFMLTQPLSVSESPGKTVTISCTRSSGSIASNYVQWYQQRPGGAPTTVIYEDTQRPSGVPDRFSGSIDSSSNSASLTISGLKTEDEADYYCQSCDTINWVFGGGTKLTVV | 3.68 ng/mL |  |
| C217 (antibody, V domains shown) VH: EVQLVESGGGLVKPGGSLRLSCAASGFTFSSYSMNWVRQAPGKGLEWVSFISSRSSYIYYADSVKGRFTISRDNAKNSLYLQMNSLRAEDTAVYYCARVQVGARGWVDYWGQGTLVTVSS VL: NFMLTQPHSVSESPGKTVTISCTRSSGSIASNYVQWYQQRPGSAPTTVIYEDNQRPSGVPDRFSGSIDSSSNSASLTISGLKTEDEADYYCQSYDSINWVFGGGTKLTVL | 2.28 ng/mL |  |
| C552 (antibody, V domains shown) VH: QVQLVESGGGVVQPGRSLRLSCAASGFTFSSYAMHWVRQAPGKGLEWVALISYDGSNKHYADSVKGRFTISRDNSKNTLYLQMNSLRAEDTAVYYCARAGTTNSDYFDYWGQGTLVTVSS VL: SYELTQPPSVSVAPGKTARITCGGNNIGSKSVHWYQQKPGQAPVLVIYYDTDRPSGIPERFSGSNSGNTATLTISRVEAGDEADYYCQVWDSSSALWVFGGGTKLTVL | 1.08 ng/mL |  |
| C553 (antibody, V domains shown) VH: QVQLVESGGGVVQPGRSLRLSCAASGFTFSNYEIHWVRQAPGKGLEWVAGISYDGSTKYYADSVKGRFTISRDNSKNTLYLQMNSLRPEDTAVFYCARAGTTNSDYFDYWGQGTLVTVSS VL: SYELTQPPSVSVAPGMTARITCGGNTIGSKSVHWYQQKAGQAPVLVIYYDSDRPSGIPERFSGSNSGNTATLTISRVEAGDEADYYCQVWDSSSVLWVFGGGTKLTVL | 1.19 ng/mL |  |
| C548 (antibody, V domains shown) VH: QVQLVQSGAEVKKPGSSVKVSCKASGGTFSSYAISWVRQAPGQGLEWMGGIIPIFGTANYAQKFQGRVTITADESTSTAYMELSSLRSEDTAVYYCARREAYGPRDYYYYYGMDVWGQGTTVTVSS VL: QSALTQPPSASASLGASVTLTCTLSSGYSNYKVDWYQQRPGKGPRFVMRVGTGGIVGSKGDGIPDRFSVLGSGLNRYLTIKNIQEEDESDYHCGADQGSGSNFVGVFGGGTKLTVL | 1.72 ng/mL |  |
